Source: patent US6531296

Target: T1, GST-RbC, Rb fusion protein encoding amino acids 780-928 (COOH-terminal domain only) (UniProt P06400)
T1 sequence (looked up): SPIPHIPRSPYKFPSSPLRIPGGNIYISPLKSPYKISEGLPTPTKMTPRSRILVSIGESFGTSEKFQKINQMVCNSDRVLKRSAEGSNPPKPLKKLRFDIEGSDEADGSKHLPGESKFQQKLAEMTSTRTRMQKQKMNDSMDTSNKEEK
Assay: in vitro translated Rak on GST-RbC beads, SDS-PAGE and autoradiography (FIG. 5B, upper panel)

- fold less binding than to the RbABC fusion protein: 5 fold less
B1: Rak protein (p54^rak), full-length nuclear tyrosine kinase (enzyme)
chain: MSNICQRLWEYLEPYLPCLSTEADKSTVIENPGALCSPQSQRHGHYFVALFDYHAPTAEELSFRAGDKLQVLDTLHEGWWFARHLEKRRDGSSQQLQGYIPSNYVAEDRSLQAEAWFFGAIRRSDAEKQLLYSENKTGSFLIRESESQKGEFSLSVLDGAVVKHYRIKRLDEGGFFLTRRRIFSTLNEFVSHYTKTSDGLCVKLGKPCLKIQVPAPFDLSYKTVDQWEIDRNSIQLLKRLGSGQFGEVWEGLWNNTTPVAVKTLKPGSMDPNDFLREAQIMKNLRHPKLIQLYAVCTLEDPIYIITELMRHGSLQEYLQNDTGSKIHLTQQVDMAAQVASGMAYLESRNYIHRDLAARNVLVGEHNIYKVADFGLARVFKVDNEDIYESRHEIKLPVKWTAPEAIRSNKFSIKSDVWSFGILLYEIITYGKMPYSGMTGAQVIQMLAQNYRLPQPSNCPQQFYNIMLECWNAEPKERPTFETLRWKLEDYFETDSSYSDANNFIR
